System: MS2 coat protein
Assay: apparent KD of MS2 coat protein; designed switch direction (-1 OFF switch, 1 ON switch): -1; higher = weaker reporter binding
Summary of the method: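 The buffer was Tris-HCl pH 7.5 with KCl, MgCl2, BSA, DTT, tRNA and Tween-20. In it, SNAP-549-labelled MS2 coat protein was titrated in doubling steps from 0.7 or 1.5 nM to 3 µM over chip-bound RNA switches transcribed by stalled E. coli RNA polymerase on Illumina chips. Apparent KD is the per-design median over clusters of curve fits to normalised fluorescence.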

[1] = Eterna round: R95, input ligand: FMN 200 uM
[2] = Eterna round: R95, input ligand: microRNA oligo, concentration not stated
[3] = Eterna round: R95, input ligand: none
[4] = input ligand: microRNA oligo, concentration not stated

Sequence | apparent KD of MS2 coat protein (input ligand: FMN 200 uM) [nM] | apparent KD of MS2 coat protein (input ligand: none) [nM] | apparent KD of MS2 coat protein [1] [nM] | apparent KD of MS2 coat protein [2] [nM] | apparent KD of MS2 coat protein [3] [nM] | apparent KD of MS2 coat protein [4] [nM]
AAUAAUGAGUAGGAUAUCACUAGCGAUAGCUAGUGAGAAGGACUCACAUGAGGAUCACCCAUGUGUUCCAAUAA [Mod3 Ex6/6-A4 by Brourd] (Eterna round: R97, puzzle: Exclusion 6) | 195 | 50.8 |  |  |  | 
CCGAGGUAGCGGUCCUAUGACAUGAGGAUCACCCAUGUACCUCGCUACGAGCUUUUUGCUCAUCUUAUAAUUCUCGG [Atriat] (puzzle: Sensor v3, turn-off variant 1) |  |  | 20.9 | 26.1 | 19.2 | 
UAAAUAAAUGUAGGAUAUCUGCACGUGUAGUGCAGAGAAGGACAUGAGGAUCACCCAUGUAUAGUAGCUUCGGCUACAAAUAAU [ENG1-C3] (Eterna round: R96, puzzle: Exclusion NG 1) | 110 | 88.8 |  |  |  | 69.3
UUACUAUGUCGCUUAAUAGCUUUUUGCUCGUCUUAUAUUACAUGAGGAUCACCCAUGUAGAUCAUGUGGCGUGACCU [JL ViennaUCT Maridi mod 6] (puzzle: Sensor v3, turn-off variant 2) |  |  | 247 | 36 | 237 | 
AAAACUAACACGAAAGUGUUAGUAAAAUAAGCUUGUGGUACAUGAGGAUCACCCAUGUCCUCAUAAGCUCGUCUUAU [Mat - Sensor v3 - Turn-off var 2 - D44] (puzzle: Sensor v3, turn-off variant 2) |  |  | 25.1 | 67.7 | 24.5 | 
UAUUGCAAGUGAGGAUAUGACAUGAGGAUCACCCAUGUAAAGGGAGUUGGCUAUAUAGCAAGAUUUCAGAAGGCACUACUGUAU [JR_ExcNG2_Sub006] (Eterna round: R96, puzzle: Exclusion NG 2) | 133 | 56.3 |  |  |  | 32.6
GGGAUGUCAGGAUAUCCAAAAGUCUGCCAAUACAGCAGACAGGAGAAGGGACAUGAGGAUCACCCAUGUAAAGA [Atonis] (puzzle: Exclusion 4) |  |  |  | 33.5 |  | 
CAUUUGUGAGGAUAUCAGGUGUGCUAGCGUACUGGUACAUCUGAGAAGGCACAUGAGGAUCACCCAUGUUUCUU [Mat - Exclusion 4 - Mod of JL - D37] (puzzle: Exclusion 4) |  |  |  | 15.9 |  | 
GGGUGCAAGCUAAGAUCCUACAUGAGGAUCACCCAUGUGGUCCGGUGACGUGAGUCACCGGACUUAGCUCGUCUUGU [salish99_S_TOV1_R5_004] (Eterna round: R97, puzzle: Sensor, turn-off variant 1) | 91.2 | 95.6 |  |  |  | 
UCGUUGUAAAUCAGGUGAUGUCUGUUAGGAUGGACUUUGACAUGAGGAUCACCCAUGUUGCUUUUUGCCCGUCUUAA [JR_SV3TOV2_Sub045] (puzzle: Sensor v3, turn-off variant 2) |  |  | 33.6 | 68.5 | 38.4 | 
GACAGUCGAGGAUAUACGAUCGUGCUUCGGCACGUAAGAUCACAUGAGGAUCACCCAUGUAGAAGGCGACUGUC [Mod 6 - Jieux - Exclusion 2] (Eterna round: R97, puzzle: Exclusion 2) | 234 | 31.7 |  |  |  | 
CAUGUGUUAGGAUAUGCACAGAUCUCCUAAUGGAGAUCUGUGCAGAAGGGACAUGAGGAUCACCCAUGUUGAUG [Mod of Brourd 14 - Jieux - Exclusion 4] (Eterna round: R97, puzzle: Exclusion 4) | 78.6 | 48.6 |  |  |  | 
AAUAACAAGUAGGAUCCUAACAUGAGGAUCACCCAUGUGCUCGUCUUAUAAAGUACUAUCACGAAAGUGAUAGUACA [Sensor 3, v1 - 53] (puzzle: Sensor v3, turn-off variant 1) |  |  | 44.4 | 64.2 | 83.5 | 
UUGACGGCAGGAUAUACAUGAGGAUCACCCAUGUAAAUUUUUCGUUUAACUUGAAUGUGUAGAAGGGCCAACUU [Ex3 #73] (Eterna round: R97, puzzle: Exclusion 3) | 18.6 | 16.8 |  |  |  | 
AAACGCUGAGGAUAUAUAUAACAACAAAGCCUCACGUGCCAACAUGAGGAUCACCCAUGUAGAAGGCAGCCCAA [Mod R3 Insanara 12 - Jieux - Exclusion 2] (Eterna round: R97, puzzle: Exclusion 2) | 15.8 | 14.1 |  |  |  | 
AACAAGCUAGGAUAUACAUGAGGAUCACCCAUGUGCGACUGAUGUCCCGUGGUUGAGGGUAGAAGGAGCGAAAG [Qucelexe] (puzzle: Exclusion 3) |  |  | 239 | 210 | 226 | 
AAGGGUACUUUCGGAACGACAUGAGGAUCACCCAUGUAUACUGAGGAUAUCCACUACUAAGGACGGGAGAAGGCAGUGUACUGU [Ex NG3 #79] (Eterna round: R96, puzzle: Exclusion NG 3) | 26.1 | 16.6 |  |  |  | 12.6

Sequence | apparent KD of MS2 coat protein (input ligand: FMN 200 uM) [nM] | apparent KD of MS2 coat protein (input ligand: none) [nM] | apparent KD of MS2 coat protein [1] [nM] | apparent KD of MS2 coat protein [2] [nM] | apparent KD of MS2 coat protein [3] [nM] | apparent KD of MS2 coat protein [4] [nM]
UCCUCACUUGAGGAUCACCCAAGUCAGGAUAUUCACUGAACUGCGUAACAGUUCGGCCGAAGAAGGGAUUCGGG [Veatorma] (Eterna round: R97, puzzle: Exclusion 1) | 259 | 75 |  |  |  | 
GGCAUGUGAGGAUAUUAACGGCCUAGACCUGGAACGCCACUUAAGAAGGUACAUGAGGAUCACCCAUGUUGGUG [Eternabot (L2) Solution 19] (Eterna round: R97, puzzle: Exclusion 4) | 711 | 367 |  |  |  | 
UAAUUAAUUAAUUAAUAAUACAUGAGGAUCACCCAUGUAGAUCCUACAUACAAUUUAAGUAGCUCGUCUUAUAAUUA [Stov1/1-A1] (Eterna round: R97, puzzle: Sensor, turn-off variant 1) | 206 | 264 |  |  |  | 
GUAGAGUAAGGAUAUAGAGAAUAGGAUAGAAUGGUUAGAAUCUAGAAGGUACAUGAGGAUCACCCAUGUAAUGU [Excluse me!!!! 7 - Jieux - Exclusion 4] (puzzle: Exclusion 4) |  |  |  | 18.7 |  | 
AAACGCAGAGGAUAUACAUAUUUUCCUCAUGUGCAGCUUACACAUGAGGAUCACCCAUGUAGAAGGCUGGAAAA [EX2 A.29] (Eterna round: R97, puzzle: Exclusion 2) | 300 | 48.6 |  |  |  | 
AAUUCUAGGGUCAGACGCACAAGCUUUUUGUUCGUUUUAACAUGAGGAUCACCCAUGUCUAGUGGAUCUGAUCGGGC [JL ViennaUCT Isreen mod 9] (puzzle: Sensor v3, turn-off variant 2) |  |  | 28.6 | 71.4 | 31 | 
GCCUUACAUGAGGAUCACCCAUGUCAGGAUAUCGUUCAAGAUCUGACCUUAGAUCGAUCGAGAAGGGACUGGAU [Eternabot (L1) Solution 39] (Eterna round: R97, puzzle: Exclusion 1) | 27.4 | 17.2 |  |  |  | 
UAGCAUUGCCAAAGGUAGUGCAUUACAUGAGGAUCACCCAUGUAGGAUAUGGUAGGCUUUGCUUACCAGAAGGACAUGAUAAUU [Mat - Exclusion NG 3 - Mod of JL - D15] (Eterna round: R96, puzzle: Exclusion NG 3) | 112 | 43.1 |  |  |  | 29.6
UUUUGGCAUGUAGGAUAUGGGUCCGAUUAGGAUUUAGAAGGACAUGAGGAUCACCCAUGUGCAUUUAAUUGGUCUUUACCUUUU [EXclNG1-LROPPY12] (Eterna round: R96, puzzle: Exclusion NG 1) | 130 | 82.5 |  |  |  | 82.1
GAUUAUGCGAGCUUUAGGGACAUGAGGAUCACCCAUGUUCGUCUUGUUGAUCUAGGUACGCUGACAUACCUAAAUCU [JMF 99] (puzzle: Sensor v3, turn-off variant 1) |  |  | 19.6 | 25.6 | 19.7 | 
AGGUAACAUGAGGAUCACCCAUGUCAGGAUAUCAGGAAGAUUAGAAUAGAGUAGAGGAUGAGAAGGGACUAUAU [Excluse me! 18- Jieux - Exclusion 1] (puzzle: Exclusion 1) |  |  | 31 | 31.7 | 43.1 | 
GUACUGACAGGAUAUACAUGAGGAUCACCCAUGUCCUUAAGCUGACAAAAGUCAGCGAGUAGAAGGGUCUGUAC [Omei Ex3 Model Bachelor's Dilema v4] (Eterna round: R97, puzzle: Exclusion 3) | 467 | 71.9 |  |  |  | 
CUGAAAUUCGUAAGGAUAUGUUCCAUCAAAUAGGAGCAGAAGGUACAUGAGGAUCACCCAUGUCAGUAGAUCCA [Eternabot (L1) Solution 47] (Eterna round: R97, puzzle: Brourd's mod of Exclusion 4) | 130 | 40.2 |  |  |  | 
AUUUAGCAAGUUAGAUCCUACAUGAGGAUCACCCAUGUUGUUCGUCUCAUUUGAAGACAACACAAAAGUGUUGUCUU [Omei Mir OFFv1 B4] (Eterna round: R97, puzzle: Sensor, turn-off variant 1) | 112 | 126 |  |  |  | 
CUUUGGUCAGGAUAUGGUGGGCUGGUCGCGCGGCCGGGUGGCCAGAAGGGACAUGAGGAUCACCCAUGUACGGC [excls4-X] (Eterna round: R96, puzzle: Exclusion 4) | 106 | 84.3 |  |  |  | 53
CUAAAUCAUGUAGGAUAUGCGUGGCAAAGCUAUGCAGAAGGACAUGAGGAUCACCCAUGUGCUUCCGUCUGAGUACAGACGGUA [Mat - Exclusion NG 1 - Mod of JL - D22] (Eterna round: R96, puzzle: Exclusion NG 1) | 622 | 98.2 |  |  |  | 72.9
